Measurements taken from patent US20170322217A1.

Target: Rad50 (Homo sapiens (Human)) (UniProt Q92878)
Assay: SILAC LC-MS/MS of anti-Flag immunoprecipitate, heavy (EVI1-Flag) over light (Flag control)

Chain of UniProt Q92878 (Q92878 whole entry): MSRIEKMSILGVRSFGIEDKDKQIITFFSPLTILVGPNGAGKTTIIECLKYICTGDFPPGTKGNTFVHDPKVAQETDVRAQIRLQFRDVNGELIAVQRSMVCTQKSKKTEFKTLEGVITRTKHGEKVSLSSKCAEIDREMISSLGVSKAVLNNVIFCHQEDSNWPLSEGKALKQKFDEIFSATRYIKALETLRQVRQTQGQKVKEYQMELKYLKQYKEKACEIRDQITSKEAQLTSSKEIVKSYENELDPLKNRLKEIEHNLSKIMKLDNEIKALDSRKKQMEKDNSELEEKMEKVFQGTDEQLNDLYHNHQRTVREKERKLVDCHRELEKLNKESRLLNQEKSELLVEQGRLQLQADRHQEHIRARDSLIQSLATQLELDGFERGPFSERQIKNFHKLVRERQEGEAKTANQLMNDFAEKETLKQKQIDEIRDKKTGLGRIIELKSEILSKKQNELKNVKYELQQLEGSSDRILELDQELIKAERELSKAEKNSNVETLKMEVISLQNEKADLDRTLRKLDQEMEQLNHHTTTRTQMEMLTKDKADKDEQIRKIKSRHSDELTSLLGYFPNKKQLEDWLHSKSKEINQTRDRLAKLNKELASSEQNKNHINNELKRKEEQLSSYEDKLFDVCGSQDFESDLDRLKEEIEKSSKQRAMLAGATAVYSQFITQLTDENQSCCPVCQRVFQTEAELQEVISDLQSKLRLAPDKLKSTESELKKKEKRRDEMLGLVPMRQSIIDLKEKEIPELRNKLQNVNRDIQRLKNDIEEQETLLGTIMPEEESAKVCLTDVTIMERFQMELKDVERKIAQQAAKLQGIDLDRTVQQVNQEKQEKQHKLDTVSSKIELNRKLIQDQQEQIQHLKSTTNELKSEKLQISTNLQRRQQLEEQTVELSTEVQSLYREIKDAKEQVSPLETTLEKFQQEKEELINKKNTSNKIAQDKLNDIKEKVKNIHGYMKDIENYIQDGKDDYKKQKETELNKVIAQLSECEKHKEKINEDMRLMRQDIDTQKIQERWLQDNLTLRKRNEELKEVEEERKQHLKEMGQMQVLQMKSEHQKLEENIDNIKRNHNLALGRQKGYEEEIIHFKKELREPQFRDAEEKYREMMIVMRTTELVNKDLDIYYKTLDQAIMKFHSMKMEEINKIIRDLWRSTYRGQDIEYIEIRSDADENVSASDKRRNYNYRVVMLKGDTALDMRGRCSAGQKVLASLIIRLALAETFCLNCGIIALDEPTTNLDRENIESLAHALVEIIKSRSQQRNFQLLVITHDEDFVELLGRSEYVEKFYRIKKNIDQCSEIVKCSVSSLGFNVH

- Evi1 enrichment (H/L ratio): 7.11 to 47.8 H/L ratio
Substance: EVI1-Flag construct (Evi1 protein with Flag tag, expressed in SKOV3 cells) (from UniProt Q03112 1-1051)
